Laboratory results taken from the DeepSol protein solubility set.

test: soluble on expression in E. coli; label from the status in PepcDB or PDB records

| Sequence | soluble on expression in E. coli |
| --- | --- |
| MGSDKIHHHHHHDSFLDEKMYSSYGPEVSDVNAKLVGLHRQYAAIWGMSSQQGFVGCWQVGTDVGAPGDTQGVEVPFYRYQELNAENAGVSFLWEKLYELINSANQIIASQAEGGDAAATAEAMFFRAYAYNMLVTLWGDVPLVTESTSIPRTDYTRNAVAEVDGVIDSDLVYAMSNLPVVGAAKNESRINQDMARQLAGEAYLRMGMRDASYFKKAEDAVTPIITGGKYELISARYGKYAAEPGDYYHDMFRWGNQRRSQGNMEAIWTFEMEYNRDVNGGTIDNPQQRRNWVPAFHKLDGMVNADSIGGRGNGRLRISNFVKYGLYEKGDIRNSNYNIRRVMWYNKPGFSKEVGIDAKGFLVDKDKGIRNVTLKTGDQVIPHEGDSLNVFYPHPTKWGAYDETDDFGYAVVKDWPVMRLGETYLLRAEARFRQGNTQGAADDINVLRDRAFKDYRAVAPGAGKVTADQIDIDFILDERARELISEENRRMTLVRTNTLAERIKLNGDMEPAAPSNKVITGFDANIHTLLPIPLTEIQLNKDGDLKQNPGY | not soluble |
| QLPSYRFNPNNHQSEQTLCVVCMCDFESRQLLRVLPCNHEFHAKCVDKWLKANRTCPICRAD | soluble |
| MAHHHHHHMASLMGFLTVSKISEPPKASVAQEAFDYIYERIAAPAEVDVERFLEIGHFESLATATCLSLEDLSLYLFAFAVDESAKRIYKISEKHFVAWMAGLISKLPRNAAPPTRENAYAPLFAAAHDAIVDLNNTIRSNEEKRSKFYQFLYNWCLKGNDASDRVDSAKELWSCFFSASPVSLTVEEARRKFTAYVCFPRINQWLDFITMLGEKATESKSGRVAVEQSGVSFDTWTQLLLFARFDNYDAYDDEDSWPVTMDDFVVYVRKLEESKKV | not soluble |
| MGHHHHHHSHMGKITFYEDRAFQGRSYETTTDCPNLQPYFSRCNSIRVESGCWMLYERPNYQGQQYLLRRGEYPDYQQWMGLSDSIRSCCLIPQTVSHRLRLYEREDHKGLMMELSEDCPSIQDRFHLSEIRSLHVLEGCWVLYELPNYRGRQYLLRPQEYRRCQDWGAMDAKAGSLRRVVDLY | soluble |
| MGSDKIHHHHHHARRNSTSRGSDSAARSPPSIRASHLKHCCFPIKEPTMSTINYSEKIPNNVNLADDRTLQRALEQWQPNFLSWWGDMGPDGSHGYDVYLRTAVSVDAGGWAHFDHVKMPDYRWGIFLTPGEQDRKIQFGEHKGEAAWQDVPGEHRANLRRIIVTQGDTEPASVEQQRHLGLTAPSMYDLRNLFQVNVEEGRHLWAMVYLLHRYFGRDGREEAEALLGRRSGDDDNPRILGAFNEKTPDWLAFYMFTYFTDRDGKFQLSALAESGFDPLARTTKFMLTEEAHHMFVGESGVSRVVQRTAQVMNELKTDDVNQIRAAGVIDLPTIQRYLNFHYSVTIDLFGADHSSNAATFYSSGLKGRYEETKRDDDHQLGGQSYKLLDVQDGKLVEREVPMLNAMNEVLRDDYIKDSVAGVNRWNKVLEKAGIEFRLTVPHKAFNRQIGTFAGTRVAPDGRVVSETEWAANEAKWLATPEDRAYVASLMGRVVEPGKFANWIAPPAMGINRQPIDFEYVRFN | not soluble |
| MIPPSSPREDGVDGLPKEAVGAEQPPSPASTSSQESKLQKLKRSLSFKTKSLRSKSADNFFQRTNSEDMKLQAHMVAEISPSSSPLPAPGSLTSTPARAGLHPGGKAHAFHEYIFKKPTFCDVCNHMIVGTNAKHGLRCKACKMSIHHKCTDGLAPQRCMGKLPKGFRRYYSSPLLIHEQFGCIKEVMPIACGNKVDPVYETLRFGTSLAQRTKKGSSGSGSDSPHRTSTSDLVEVPEEANGPGGGYDLRKRSNSVFTYPENGTDDFRDPAKNINHQGSLSKDPLQMNTYVALYKFVPQENEDLEMRPGDIITLLEDSNEDWWKGKIQDRIGFFPANFVQRLQQNEKIFRCVRTFIGCKEQGQITLKENQICVSSEEEQDGFIRVLSGKKKGLIPLDVLENI | soluble |
| MSLKQFKSIINTSQDFEKRIEKIKKEVINDPDVKQFLEAHRAELTNAMIDEDLNVLQEYKDQQKHYDGHKFADCPNFVKGHVPELYVDNNRIKIRYLQCPCKIKYDEERFEAELITSHHMQRDTLNAKLKDIYMNHRDRLDVAMAADDICTAITNGEQVKGLYLYGPFGTGKSFILGAIANQLKSKKVRSTIIYLPEFIRTLKGGFKDGSFEKKLHRVREANILMLDDIGAEEVTPWVRDEVIGPLLHYRMVHELPTFFSSNFDYSELEHHLAMTRDGEEKTKAARIIERVKSLSTPYFLSGENFRNNEGHHHHHH | soluble |
| MTLSRFAYNGQRCPSSHNILDNSKIISEDCRKELTELFHHYYPIEIDPHRTIKEKLPHMVQWWSKAHSLLCQQRIQKVQIAQVVGESTAMLREGYKTFFDTLYQNNIPLFIFSAGIGDILEEIIRQMKVFHPNIHIVSNYMDFSEDGFLKGFKGQLIHTYNKNSSVCENSSYFQQLQNKTNIILLGDSIGDLTMADGVPGVQNILKIGFLNDKVEERRERYMDSYDIVLEKDETLDVVNGLLRHILYQGDCVELQGS | soluble |
| MSLTTFLFRNGALLDPDHPDLLQGFEILIEDGFIREVSDKPIKSSNAHVIDVKGKTIMPGLIDLHVHVVAIEFNLPRVATLPNVLVTLRAVPIMRAMLRRGFTTVRDAGGAGYPFKQAVESGLVEGPRLFVSGRALSQTGGHADPRARSDYMPPDSPCGCCVRVGALGRVADGVDEVRRAVREELQMGADQIKIMASGGVASPTDPVGVFGYSEDEIRAIVAEAQGRGTYVLAHAYTPAAIARAVRCGVRTIEHGNLIDDETARLVAEHGAYVVPTLVTYDALASEGEKYGLPPESIAKIADVHGAGLHSIEIMKRAGVKMGFGTDLLGEAQRLQSDEFRILAEVLSPAEVIASATIVSAEVLGMQDKLGRIVPGAHADVLVVDGNPLKSVDCLLGQGEHIPLVMKDGRLFVNELEGHEGHHHHHH | soluble |
| MQIRFAGIGGQGVVLAGVILGEAAAIEGLRVLQTQDYSSASRGGHSIADVIISNEEIYDVMVTEADVLVALHQLGYETAKSKLKKDGILIIDTDLVKPDREYIGAPFTRIAEETTGLALTVNMVALGYLIGKTQIVKPESVEEAIRRRVPKGTEEINIKAFRKGLEVSMNE | not soluble |
| MKESNSRREFLSQSGKMVTAAALFGTSVPLAHAAVAGTLNCEANNTMKITDPHYYLDNVLLETGFDYENGVAVQTRTARQTVEIQDGKIVALRENKLHPDATLPHYDAGGKLMLPTTRDMHIHLDKTFYGGPWRSLNRPAGTTIQDMIKLEQKMLPELQPYTQERAEKLIDLLQSKGTTIARSHCNIEPVSGLKNLQNLQAVLARRQAGFECEIVAFPQHGLLLSKSEPLMREAMQAGAHYVGGLDPTSVDGAMEKSLDTMFQIALDYDKGVDIHLHETTPAGVAAINYMVETVEKTPQLKGKLTISHAFALATLNEQQVDELANRMVVQQISIASTVPIGTLHMPLKQLHDKGVKVMTGTDSVIDHWSPYGLGDMLEKANLYAQLYIRPNEQNLSRSLFLATGDVLPLNEKGERVWPKAQDDASFVLVDASCSAEAVARISPRTATFHKGQLVWGSVAG | soluble |
| MGSDKIHHHHHHMSLSRLSIDAFRNIDSAQLAPGAGLNLIYGHNGSGKTSILEAIYFLGMGRSFRSHLSQRVIQNDADCLTLFAVAEGQAGDSRIGLRRHRSGDTEVKIDGEKVKRLSQLAEALPIQVITPESFSLLFEGPSARRQFIDWGAFHASKQFHLAWMNTRRILKQRNQLLRDGASYEHIAFWDKELIRYALEVTAIRNDYVGSLNGVLKGIIGEFLPDVDIRVSFTRGWDSKTDFSELLQSQYARDLAIGHTVSGPHKADLRLRVGNLPAQDALSRGQLKLLVCALRIAQGKLLKQQIDKHSIYLVDDLPSELDAKHRQLLLKELIDTGAQLFVTAIEPSAIVDSLPVPPDRMFHVQAGRVTQTK | not soluble |
| MFFRVKTTPTKAKPYVKPQNANNLQNNFNPRKIFTEYISKEETDAGIEDGSMFKGVLRINPKNYQECFLDHPKGTNHPDVLVLGQDRNRAMQGDVVAVKIKPKEDWLVNYVEYVKWWAEHKKGDRNSGKTDNNSPNKTEKRCLRNEIQDNGVTSDEVPDSCLITIGAIVHILEKKHFRVAAGKLQLMPNSANPNVLFVATDSRVPRILIPKSDVDKEFFSRPKDFERFLYTAKITDWRAESVYADGRLVKLLGMSGEIDTETERIVYEHQIDHREFSDECLESLPITTAENWKVPDAEFEYRRDFRSDIVFTIDPKTARDLDDALHAKHIDDCDGKGTPGLEIGVHIADVTFFLKEGTELDKWASERGNSTYLSQTVIPMLPRILCEQLCSLNPGVDRLSFSTVFKMSYEAELYDVWFGRSVIRSRVKLAYEHAQDFIENPEKDFTCDELPDISDGNTPFEIKEKTLMLHRIAQVLRQKREDSGALRIELPRLKFALDEDKKPQGVSIYEIKDSNKLVEEFMLLANMEVAKKIAENFPEHALLRNHPPPKEKMIKDVAEQCARIGFPLDGRTSGLLSTSLRKYQGKSRLDMCIRQVISSLTIKPMQQAKYFCTFEMPLSFYHHFALNVDHYTHFTSPIRRYPDVIVHRQLAAALGYNERSERVPEEIQEICTRCNDTKLASKEASDESAMLYFGVFIHQTGPMKCQAVVLGVMDLSFDVLIVEYGVVKRVYVDKMKRDFNKSTEKLTIYWPADPNAESGNREEFSSSIQMCNVVYVILVPYKSIEVSATIVRPSLEQRNILKSTLKDMKETGSTILQ | not soluble |
| MLQCIFLISDSGEVMLEKQLTGHRVDRSICAWFWDQYISQGDSFKALPVIASPTHYLFQIVRDGITFLACSQVEMPPLMAIEFLCRVADVLSEYLGGLNEDLIKDNFIIVYELLDEMIDNGFPLTTEPSILKEMIAPPNLVSKMLSVVTGNASNVSDTLPSGAGSCVPWRPTDPKYSSNEVYVDLVEEMDAIVNRDGELVKCEIYGEVQMNSQLTGFPDLTLSFANPSILEDMRFHPCVRYRPWESHQVLSFVPPDGEFKLMSYRVKKLKNTPVYVKPQITSDSGTCRISVLVGIRSDPGKTIESITLSFQLPHCVSSADLSSNHGTVTILSNKTCTWTIGRIPKDKTPCLSGTLALEPGLERLHVFPTFKLGFKIMGIALSGLRIEKLDLQTIPPRLYKGFRAQTRAGEFDVRL | soluble |
| MGSDKIHHHHHHMRASVSPDIFPPRGHEAKRLSIVDAAAGVFCREGFAGANIDLIAAEAGVSRQTVYNHHGDKEKLFMAVVRDLTDRCNVGIFATIATFPDQPGDLEADLIGFAVRLNQNCICNRDGKFLRKLIQTEGERYPELFAEWREQGPGTTLPAIAARFARLAYGGYLTIDDPDVAARQFFGLVNAELQTTFMLGGTPREDEVVRSATNGVRTFLRAFGKRPAPGSVKKHIALANA | not soluble |
| MGSDKIHHHHHHMTTTTKKTAERLIKKYPNRRLYDTETSTYITLTDVKQLVLDQEDFKVIDAKSNEDLTRAILLQIILEEESGGLPMFSSSMLSQIIRFYGHAMQGMMGTYLEKNIQAFIDIQAKLADQSKNLYEGKAMNPEVWSQFMNMQAPMMQGMMTSYIEQSKNMFVQMQEQMQNQAKSMFATFPFTPGGAVNVAGGGNAPASPQGNPQGNPEPEKK | not soluble |
| MGNRIPDEIVDQVQKSADIVEVIGDYVQLKKQGRNYFGLCPFHGESTPSFSVSPDKQIFHCFGCGAGGNVFSFLRQMEGYSFAESVSHLADKYQIDFPDDITVHSGARPESSGEQKMAEAHELLKKFYHHLLINTKEGQEALDYLLSRGFTKELINEFQIGYALDSWDFITKFLVKRGFSEAQMEKAGLLIRREDGSGYFDRFRNRVMFPIHDHHGAVVAFSGRALGSQQPKYMNSPETPLFHKSKLLYNFYKARLHIRKQERAVLFEGFADVYTAVSSDVKESIATMGTSLTDDHVKILRRNVEEIILCYDSDKAGYEATLKASELLQKKGCKVRVAMIPDGLDPDDYIKKFGGEKFKNDIIDASVTVMAFKMQYFRKGKNLSDEGDRLAYIKDVLKEISTLSGSLEQEVYVKQLASEFSLSQESLTEQLSVFSKQNKPADNSGETKTRRAHLTTKARQKRLRPAYENAERLLLAHMLRDRSVIKKVIDRVGFQFNIDEHRALAAYLYAFYEEGAELTPQHLMARVTDDHISQLLSDILMLQVNQELSEAELSDYVKKVLNQRNWSMIKEKEAERAEAERQKDFLRAASLAQEIVTLNRS | not soluble |
